Experimental data published in publication doi:10.1101/2024.08.08.607148 (bioRxiv, 2024).

Experiments:
Experiment in all cases: ELISA
[1] = target: extracellular domain (ECD) of human LILRB1 (human, UniProt Q8NHL6 24-461, biotin (NHS-pEG12-biotin) in the competition ELISA)
[2] = target: T1, variable region of RIFIN#1 (PF3D7_1254800, 165-274 aa) (P. falciparum, UniProt Q8I4N9)
[3] = target: T1, variable region of RIFIN#1 …; remark: listed apart in the source

Chain of extracellular domain (ECD) of human LILRB1 (Q8NHL6 24-461): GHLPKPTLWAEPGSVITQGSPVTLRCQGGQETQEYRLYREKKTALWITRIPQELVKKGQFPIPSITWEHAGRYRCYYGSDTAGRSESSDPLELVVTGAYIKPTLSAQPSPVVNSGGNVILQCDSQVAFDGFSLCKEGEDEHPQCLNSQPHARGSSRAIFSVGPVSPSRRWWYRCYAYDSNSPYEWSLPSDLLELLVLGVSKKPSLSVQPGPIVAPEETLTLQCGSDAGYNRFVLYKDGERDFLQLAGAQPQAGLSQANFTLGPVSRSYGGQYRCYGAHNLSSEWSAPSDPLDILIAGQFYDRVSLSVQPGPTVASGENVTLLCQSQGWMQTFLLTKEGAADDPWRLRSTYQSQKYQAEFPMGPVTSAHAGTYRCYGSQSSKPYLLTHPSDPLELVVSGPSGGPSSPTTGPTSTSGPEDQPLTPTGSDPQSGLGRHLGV

B1: variable region of RIFIN#1 (PF3D7_1254800, 165-274 aa) (domain or fragment, P. falciparum, UniProt Q8I4N9 165-274, looked up)
chain: NYETINAFIAKTIEELEGIPGITKLFGAKISQFVTPAVFRKPMSLVETILSEKKKLCLCAANKNELLCRGMNPNVPETLPKKIEVAVNEVLSSVNDTWATATTPTTFFTN
- Kd [1]: ~650 nM

B2: D1D2.v-IgG (LILRB1 D1D2.v-containing antibody on the MDB1 scaffold) (antibody, V domains shown)
VH: QITLKESGPTLVERTQTLTLTCTFSGFSLTTDGLGVGWIRQPPGKALEWLALIYYDDVRRYRPSLKSRLTITKDTSKNRVVLTVTDMDPVDAGTYFCVHASLFNLGSRNVYFRYWGQGTLVSVSS
VL: SYDLTQPPSVSVSPGQTARITCSGDSLARQFASWYQQKPGQSPVLLIYKNIERLSAIPERFSGSTSGTSVTLTISGVQAEDEADYFCQSADDSGSYSLFGTGTRVSVL
- Kd [2]: 6 nM
- IC50 [3]: 20 nM
